{
  "source": "patent US20040214349A1",
  "about": "(MURDOCH CHILDRENS RESEARCH INSTITUTE ROYAL CHILDREN S …, published 2004)",
  "biological_target": "the molecule itself",
  "assay": "non-reducing SDS-PAGE of immunoprecipitated His-WARP",
  "data": [
    {"protein": "His-tagged full-length mouse WARP expressed in 293-EBNA cells (other, N-linked oligosaccharide (one or more; candidate sites Asn264 and Asn359), also called His-WARP; WARP-His) RSSHHHHHHIERGSTASDPQGDLLFLLDSSASVSHYEFSRVREFVGQLVATMSFGPGALRASLVHVGSQPHTEFTFDQYSSGQAIRDAIRVAPQRMGDTNTGLALAYAKEQLFAEEAGARPGVPKVLVWVTDGGSSDPVGPPMQELKDLGVTIFIVSTGRGNLLELLAAASAPAEKHLHFVDVDDLPIIARELRGSITDAMQPQQLHASEVLSSGFRLSWPPLLTADSGYYVLELVPSGKLATTRRQQLPGNATSWTWTDLDPDTDYEVSLLPESNVHLLRPQHVRVRTLQEEAGPERIVISHARPRSLRVSWAPALGPDSALGYHVQLGPLQGGSLERVEVPAGQNSTTVQGLTPCTTYLVTVTAAFRSGRQRALSAKACTASGARTRAPQSMRPEAGPREP", "values": [
      {"measurement": "binding result", "value": "binds"}
    ]}
  ]
}
